The assay deals with T1, IKKi (endogenous, MEFs) (mouse (MEFs), UniProt Q9R0T8 1-717).
T1 sequence (looked up): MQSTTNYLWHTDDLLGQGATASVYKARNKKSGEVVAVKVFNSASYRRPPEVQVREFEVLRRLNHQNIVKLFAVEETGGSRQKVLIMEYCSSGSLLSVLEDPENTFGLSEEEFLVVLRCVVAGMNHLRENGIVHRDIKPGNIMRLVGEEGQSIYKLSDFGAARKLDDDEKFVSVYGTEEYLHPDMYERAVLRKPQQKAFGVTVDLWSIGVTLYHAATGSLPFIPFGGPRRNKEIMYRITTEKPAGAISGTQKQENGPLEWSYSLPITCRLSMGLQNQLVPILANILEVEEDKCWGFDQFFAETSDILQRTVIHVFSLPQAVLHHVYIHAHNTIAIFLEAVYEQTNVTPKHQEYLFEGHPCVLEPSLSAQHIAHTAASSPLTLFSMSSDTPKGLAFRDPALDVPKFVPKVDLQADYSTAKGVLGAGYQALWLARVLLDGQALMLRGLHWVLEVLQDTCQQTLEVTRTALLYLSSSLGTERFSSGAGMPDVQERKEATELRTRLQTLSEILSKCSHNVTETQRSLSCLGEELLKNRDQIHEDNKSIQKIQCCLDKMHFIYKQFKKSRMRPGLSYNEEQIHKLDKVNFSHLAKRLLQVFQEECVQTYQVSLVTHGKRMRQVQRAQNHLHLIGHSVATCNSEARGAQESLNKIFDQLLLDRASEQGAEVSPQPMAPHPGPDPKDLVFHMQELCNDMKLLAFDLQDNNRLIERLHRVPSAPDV
In words: anti-FLAG immunoprecipitation from cytoplasmic and nuclear fractions of reconstituted MEFs (FIG. 5G). How it is done: Immunoblot, immunoprecipitation and nuclear fractionation: Cell were harvested and lysed on ice in a lysis buffer containing 0.5% Triton X-100, 20 mM Hepes pH 7.4, 150 mM NaCl, 12.5 mM-glycerophosphate, 1.5 mM MgCl2, 10 mM NaF, 2 mM dithiothreitol, 1 mM sodium orthovanadate, 2 mM EGTA, […], and 1 mM phenylmethylsulfonyl fluoride for 20 minutes, followed by centrifuging at 12,000 rpm for 15 minutes to extract clear lysates. For immunoprecipitation, cell lysates were incubated with 1 μg of antibody and A-sepharose beads at 4 degree overnight. After incubation, the beads were washed four times with lysis buffer and the precipitates were eluted with 2× sample buffer. Elutes and whole cell extracts were resolved on SDS-PAGE followed by immunobloting with antibodies. Nuclear fractionation was performed using NUCLEI EZ PREP kit purchased from Sigma in accordance with the manufacturer's instruction. Nuclear pellets were suspended in 30p1 of nuclear extraction buffer (20 mM HEPES, 400 mM NaCl, 1 mM EDTA, 1 mM EGTA in water, pH 7.9) containing freshly prepared 1 mM DTT and protease inhibitor cocktail. After 1.5 h incubation on ice bath with intermittent vortexing, extracts were centrifuged and supernatant was collected for immunoprecipitation.

B1: FLAG-tagged mouse wild-type Act1 (WT) (other, UniProt Q8N7N6 1-555, looked up)
chain: MNRSIPVEVDESEPFPSQLLKPIPEYSPEEELEPPAPNTRNMAPSSLSVLQCPPLKLANHQPVSQQVTCLRAKVLEEGEASFFRRHPELGKDISSCSSGASEPESELGALPPEHRFTLTEKRNRWLGSQLSAASPDTGHESDKSDPSLPNALADSFSGGQEMMPRPRPRPGPHRHRAAPDVPTIDTGYDSQPQDVLGIRQLERPLPLTSSCYLQDLPGPLRSRELPPQFELERYPMNAQLLPPHPSPQAPWNCQYYCPGGPYHHQVPHGHGYPPAAAYQQVLQPALPGQVLPGARARGPRPVQKVILNDSSPQDQEERPAQRDFSFPRLPRDQLYRPPSNGVEAPEESLDLPAELRPHGPQAPSLAAVPRPPSNPLARGTLRTSNLPEELRKVFITYSMDTAMEVVKFVNFLLVNGFQTAIDIFEDRIRGIDIIKWMERYLRDKTVMIIVAISPKYKQDVEGAESQLDEDEHGLHTKYIHRMMQIEFISQGSMNFRFIPVLFPNAKKEHVPTWLQNTHVYSWPKNKKNILLRLLREEEYVAPPRGPLPTLQVVPL
notes: also called flag-tagged mAct1; flag-Act1; not shown: FLAG tag
Regarding B1, the binding result is reported as “binds”.

The values above are taken from US20230009539A1 (CLEVELAND CLINIC FOUNDATION, published 2023).
